This note sets out measurements from US20090297479A1 (published 2009).

For assay [1], the target named is T1, DC-HIL, mouse, endogenous on APC / dendritic cells (mouse, UniProt Q99P91 23-574).
T1 sequence (looked up): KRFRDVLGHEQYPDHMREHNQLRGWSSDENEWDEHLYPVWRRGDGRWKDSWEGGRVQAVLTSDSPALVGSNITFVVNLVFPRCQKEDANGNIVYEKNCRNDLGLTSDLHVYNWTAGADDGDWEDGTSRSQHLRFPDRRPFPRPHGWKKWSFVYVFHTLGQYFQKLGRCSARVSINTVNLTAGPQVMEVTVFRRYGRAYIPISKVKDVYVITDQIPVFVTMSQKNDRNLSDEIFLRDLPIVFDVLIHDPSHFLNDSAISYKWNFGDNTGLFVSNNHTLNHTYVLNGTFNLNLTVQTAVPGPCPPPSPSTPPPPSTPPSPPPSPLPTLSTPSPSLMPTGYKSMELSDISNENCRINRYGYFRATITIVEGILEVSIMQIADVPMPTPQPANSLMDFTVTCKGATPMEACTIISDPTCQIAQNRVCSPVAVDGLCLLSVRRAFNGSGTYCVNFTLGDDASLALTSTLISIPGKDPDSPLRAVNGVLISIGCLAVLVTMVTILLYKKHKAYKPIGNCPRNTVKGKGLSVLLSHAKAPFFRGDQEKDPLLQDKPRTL
Put plainly: cell-based or functional assay.

The target in assay [2] is T2, DC-HIL-Fc RAA mutant (replacement of RGD sequence with RAA) (mouse; human, UniProt Q99P91 23-502).
T2 construct: extracellular domain; Positions 65 and 66 are derived from the printed position of RGD (aa 64-66); not shown: Fc of human IgG1
T2 sequence (looked up): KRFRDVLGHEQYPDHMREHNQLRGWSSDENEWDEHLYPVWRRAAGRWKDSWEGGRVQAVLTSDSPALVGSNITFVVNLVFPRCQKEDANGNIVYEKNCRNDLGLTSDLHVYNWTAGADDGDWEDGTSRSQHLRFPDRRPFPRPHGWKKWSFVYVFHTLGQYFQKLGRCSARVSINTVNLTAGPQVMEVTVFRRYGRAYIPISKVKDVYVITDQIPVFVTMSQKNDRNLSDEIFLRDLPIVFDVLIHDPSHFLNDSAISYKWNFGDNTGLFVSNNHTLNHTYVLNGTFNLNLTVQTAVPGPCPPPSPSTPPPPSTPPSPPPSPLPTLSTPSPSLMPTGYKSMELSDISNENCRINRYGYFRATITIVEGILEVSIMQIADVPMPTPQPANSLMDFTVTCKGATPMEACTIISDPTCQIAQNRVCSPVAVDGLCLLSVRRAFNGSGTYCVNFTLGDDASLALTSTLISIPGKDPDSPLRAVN
Put plainly: FACS, 10 µg/mL on activated CD4+ T-cells (ligand later identified as SD-4). The method, then: Splenic CD3⁺ T-cells (1×10⁶) were activated by immobilized anti-CD3 Ab (1 or 3 μg/mL) or concanavalin A (10 μg/mL; Sigma, St Louis, Mo.) for 3 days. Freshly isolated and activated CD3⁺ T-cells were then treated with 5 μg/mL Fc blocker (BD Pharmingen, San Diego, Calif.) on ice for 30 minutes to block Fc-binding activity of Fc receptors on T-cells and incubated with 5 μg/mL PE-anti-CD3 Ab (BD Pharmingen) and 10 μg/mL DC-HIL-Fc or control human IgG (hIgG) plus 5 μg/mL FITC-anti-human IgG (both from Jackson ImmunoResearch, West Grove, Pa.). In some experiments, activated and Fc-blocked CD3⁺ T-cells were doubly-stained with 5 μg/mL FITC-labeled anti-CD4 or anti-CD8 Ab (BD Pharmingen) and Fc proteins/PE-anti-human IgG (BD Pharmingen). The treated cells were also stained with anti-CD69 Ab or isotypic control IgG to evaluate activation levels. After staining, binding of Fc proteins to T-cells and expression of marker molecules were analyzed by fluorescence-activated cell sorting (FACS).
(Flow cytometry measures light scatter and fluorescence of single cells or particles in a stream.)

A further assay addresses T3, recombinant Fc alone (human, UniProt P01857-1 99-330 = IgG part, limits assumed).
T3 construct: domain: Fc portion
Briefly: FACS on T-cells (ligand on activated T-cells later identified as SD-4).

B1: SD4-Fc (extracellular domain of SD-4 fused to the Fc portion of human IgG1) (Fc fusion, UniProt O35988 24-145, looked up, not shown: a dimerising Fc or GST)
chain: ESIRETEVIDPQDLLEGRYFSGALPDDEDAGGSDDFELSGSGDLDDTEEPRPFPEVIEPLVPLDNHIPENAQPGIRVPSEPKELEENEVIPKRAPSDVGDDMSNKVSMSSTAQGSNIFERTE
Turning to B1, in assay [1], the “T-cell activation in the mixed lymphocyte reaction (3H-thymidine)” value came to 2 fold.

B2: syndecan-4 (SD-4), mouse, endogenous on T-cells (receptor, UniProt O35988 24-198, looked up)
chain: ESIRETEVIDPQDLLEGRYFSGALPDDEDAGGSDDFELSGSGDLDDTEEPRPFPEVIEPLVPLDNHIPENAQPGIRVPSEPKELEENEVIPKRAPSDVGDDMSNKVSMSSTAQGSNIFERTEVLAALIVGGVVGILFAVFLILLLVYRMKKKDEGSYDLGKKPIYKKAPTNEFYA
modifications: heparin/heparan sulfate chains (binding of DC-HIL is blocked by heparin)
notes: whole, on cells
On to B2, for which the binding result in assay [2] is given as “binds”; with recombinant Fc alone, “no binding”.
